# According to the supplement of paper PMC5998384:
# Columns and labels:
# [1] = tested on: HeLa Kyoto; experiment: thermal stability score vs G1/S (z-score of summed log2 fold changes over temperatures); higher = more thermally stable than in G1/S
# [2] = tested on: HeLa Kyoto; experiment: melting temperature (median over replicates), in situ; higher = more thermally stable
# [3] = cell cycle stage: early G1 (4.5 h after nocodazole release)
# 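Wherever melting temperature (median over replicates), in situ is given: HeLa Kyoto cells synchronized by double thymidine or nocodazole block, proteins quantified by TMT10plex mass spectrometry, three independent biological replicates.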
# 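Wherever thermal stability score vs G1/S (z-score of summed log2 fold changes over temperatures) is given: synchronized HeLa Kyoto cells, proteins quantified by TMT10plex mass spectrometry, three biological replicates, mitosis taken 0.5 h after nocodazole release, G1/S directly after double thymidine block.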
Substance,"thermal stability score [1, 3]",thermal stability score ([1]; cell cycle stage: mitosis),melting temperature ([2]; cell cycle stage: G1/S),melting temperature ([2]; cell cycle stage: mitosis)
ITM2B,5.19,0.613,55.2 °C,54.7 °C
MAAACGPGAAGYCLLLGLHLFLLTAGPALGWNDPDRMLLRDVKALTLHYDRYTTSRRLDPIPQLKCVGGTAGCDSYTPKVIQCQNKGWDGYDVQWECKTDLDIAYKFGKTVVSCEGYESSEDQYVLRGSCGLEYNLDYTELGLQKLKESGKQHGFASFSDYYYKWSSADSCNMSGLITIVVLLGIAFVVYKLFLSDGQYSPPPYSEYPPFSHRYQRFTNSAGPPPPGFKSEFTGPQNTGHGATSGFGSAFTGQQGYENSGPGFWTGLGTGGILGYLFGSNRAATPFSDSWYYPSYPPSYPGTWNRAYSPLHGGSGSYSVCSNSDTKTRTASGYGGTRRR [SARAF],-0.125,0.434,52 °C,53.3 °C
MAARRRRSTGGGRARALNESKRVNNGNTAPEDSSPAKKTRRCQRQESKKMPVAGGKANKDRTEDKQDGMPGRSWASKRVSESVKALLLKGKAPVDPECTAKVGKAHVYCEGNDVYDVMLNQTNLQFNNNKYYLIQLLEDDAQRNFSVWMRWGRVGKMGQHSLVACSGNLNKAKEIFQKKFLDKTKNNWEDREKFEKVPGKYDMLQMDYATNTQDEEETKKEESLKSPLKPESQLDLRVQELIKLICNVQAMEEMMMEMKYNTKKAPLGKLTVAQIKAGYQSLKKIEDCIRAGQHGRALMEACNEFYTRIPHDFGLRTPPLIRTQKELSEKIQLLEALGDIEIAIKLVKTELQSPEHPLDQHYRNLHCALRPLDHESYEFKVISQYLQSTHAPTHSDYTMTLLDLFEVEKDGEKEAFREDLHNRMLLWHGSRMSNWVGILSHGLRIAPPEAPITGYMFGKGIYFADMSSKSANYCFASRLKNTGLLLLSEVALGQCNELLEANPKAEGLLQGKHSTKGLGKMAPSSAHFVTLNGSTVPLGPASDTGILNPDGYTLNYNEYIVYNPNQVRMRYLLKVQFNFLQLW [PARP2],1.04,1.69,47.1 °C,50.5 °C
MAASGPGCRSWCLCPEVPSATFFTALLSLLVSGPRLFLLQQPLAPSGLTLKSEALRNWQVYRLVTYIFVYENPISLLCGAIIIWRFAGNFERTVGTVRHCFFTVIFAIFSAIIFLSFEAVSSLSKLGEVEDARGFTPVAFAMLGVTTVRSRMRRALVFGMVVPSVLVPWLLLGASWLIPQTSFLSNVCGLSIGLAYGLTYCYSIDLSERVALKLDQTFPFSLMRRISVFKYVSGSSAERRAAQSRKLNPVPGSYPTQSCHPHLSPSHPVSQTQHASGQKLASWPSCTPGHMPTLPPYQPASGLCYVQNHFGPNPTSSSVYPASAGTSLGIQPPTPVNSPGTVYSGALGTPGAAGSKESSRVPMP [RHBDD2],-1.05,-1.48,,52.5 °C
MAFLGLFSLLVLQSMATGATFPEEAIADLSVNMYNRLRATGEDENILFSPLSIALAMGMMELGAQGSTQKEIRHSMGYDSLKNGEEFSFLKEFSNMVTAKESQYVMKIANSLFVQNGFHVNEEFLQMMKKYFNAAVNHVDFSQNVAVANYINKWVENNTNNLVKDLVSPRDFDAATYLALINAVYFKGNWKSQFRPENTRTFSFTKDDESEVQIPMMYQQGEFYYGEFSDGSNEAGGIYQVLEIPYEGDEISMMLVLSRQEVPLATLEPLVKAQLVEEWANSVKKQKVEVYLPRFTVEQEIDLKDVLKALGITEIFIKDANLTGLSDNKEIFLSKAIHKSFLEVNEEGSEAAAVSGMIAISRMAVLYPQVIVDHPFFFLIRNRRTGTILFMGRVMHPETMNTSGHDFEEL [SERPINI1],0.548,1.27,57 °C,57.8 °C
MAMWNRPCQRLPQQPLVAEPTAEGEPHLPTGRELTEANRFAYAALCGISLSQLFPEPEHSSFCTEFMAGLVQWLELSEAVLPTMTAFASGLGGEGADVFVQILLKDPILKDDPTVITQDLLSFSLKDGHYDARARVLVCHMTSLLQVPLEELDVLEEMFLESLKEIKEEESEMAEASRKKKENRRKWKRYLLIGLATVGGGTVIGVTGGLAAPLVAAGAATIIGSAGAAALGSAAGIAIMTSLFGAAGAGLTGYKMKKRVGAIEEFTFLPLTEGRQLHITIAVTGWLASGKYRTFSAPWAALAHSREQYCLAWEAKYLMELGNALETILSGLANMVAQEALKYTVLSGIVAALTWPASLLSVANVIDNPWGVCLHRSAEVGKHLAHILLSRQQGRRPVTLIGFSLGARVIYFCLQEMAQEKDCQGIIEDVILLGAPVEGEAKHWEPFRKVVSGRIINGYCRGDWLLSFVYRTSSVQLRVAGLQPVLLQDRRVENVDLTSVVSGHLDYAKQMDAILKAVGIRTKPGWDEKGLLLAPGCLPSEEPRQAAAAASSGETPHQVGQTQGPISGDTSKLAMSTDPSQAQVPVGLDQSEGASLPAAASPERPPICSHGMDPNPLGCPDCACKTQGPSTGLD [TMCO4],-0.364,0.512,,53.7 °C
